Test results as given in paper doi:10.64898/2025.12.14.694184 (bioRxiv, 2025).

B1: human TorsinA-StrepTagII-FLAG-StrepTagII (enzyme, UniProt O14656 21-332, looked up)
chain: VEPISLGLALAGVLTGYIYPRLYCLFAECCGQKRSLSREALQKDLDDNLFGQHLAKKIILNAVFGFINNPKPKKPLTLSLHGWTGTGKNFVSKIIAENIYEGGLNSDYVHLFVATLHFPHASNITLYKDQLQLWIRGNVSACARSIFIFDEMDKMHAGLIDAIKPFLDYYDLVDGVSYQKAMFIFLSNAGAERITDVALDFWRSGKQREDIKLKDIEHALSVSVFNNKNSGFWHSSLIDRNLIDYFVPFLPLEYKHLKMCIRVEMQSRGYEIDEDIVSRVAEEMTFFPKEERVFSDKGCKTVFTKLDYYYDD

Assays:
[1] = biological target: the molecule itself; assay: non-reducing SDS-PAGE
[2] = biological target: B1; assay: pull-down
[3] = biological target: the molecule itself; assay: native gel or EMSA

Row | binding result [2] | Binder | stoichiometry N [1] | binding result [3]
1 | binds | mouse CLCC1 N-terminal domain dimer (CLCC1-NTD-6×His) (domain or fragment, UniProt Q99LI2 19-184, looked up, inter-molecular disulfide bonds in the dimer) HDDDWIDPTDMLNYDAASGTMRKSQVRSGTSEKKEVSPDSSEAEELSDCLHRLDSLTHKVDSCEKKKMKDYESQSNPVFRRYLNKILIEAGKLGLPDENKVEMRYDAEILLSRQTLLEIQKFLSGEEWKPGALDDALSDILINFKCHDSEAWKWQFEDYFGVDPYN | 2 | –
2 | – | B1 | – | binds
